Results as given in paper PMC5504672.

Assays:
[1] = molecular target: T1, IolQ-His6 (DegA) (Bacillus subtilis 168) (UniProt P37947); assay: EMSA; conditions: 10 mM Tris-HCl pH 8.0, 1 mM DTT, 10 mM KCl, 5 mM MgCl2, 10% glycerol, 5 ug/ml poly d(I-C), 50 ug/ml BSA, 37 C, 30 min; DNA 0.155 pmol in 0.02 ml (EMSA) or …
T1 sequence: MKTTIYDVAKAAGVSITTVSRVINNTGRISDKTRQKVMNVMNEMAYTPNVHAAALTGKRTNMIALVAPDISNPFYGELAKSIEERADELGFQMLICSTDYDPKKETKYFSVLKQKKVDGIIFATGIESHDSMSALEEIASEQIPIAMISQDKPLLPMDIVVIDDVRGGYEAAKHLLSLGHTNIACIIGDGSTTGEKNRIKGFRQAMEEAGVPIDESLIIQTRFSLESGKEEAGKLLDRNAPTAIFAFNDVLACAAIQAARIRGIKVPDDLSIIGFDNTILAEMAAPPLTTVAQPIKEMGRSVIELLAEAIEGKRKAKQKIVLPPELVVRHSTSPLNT

[2] = molecular target: T1, IolQ-His6 (DegA) (Bacillus subtilis 168); assay: DNase I footprinting; conditions: 10 mM Tris-HCl pH 8.0, 1 mM DTT, 10 mM KCl, 5 mM MgCl2, 10% glycerol, 5 ug/ml poly d(I-C), 50 ug/ml BSA, 37 C, 30 min; DNA 0.155 pmol in 0.02 ml (EMSA) or …

Sequence | binding [1] | binding [2]
ATGAGCGGGTTTTTTCATTATGACAGTTGAAGCCAAAAAAACATATTGCGTGTAAACCAAAGGCGGTGTAAAATATAACCATCTTTTGAGAAAGCGCTTGCGCAAAATGGCAGAGCGGATAGAACCGCTGTTTTTTTAGCTGTTAAGAGAAAACGCTTTCTCAAAGCGAGCCCGAAATGAGATAAAGGAGAGGATGGGAC (double strand) [iolX promoter 200 bp] | binds | –
GAGCTTGTAGTCAGACATTCTACATCACCGCTCAACACATGAGCCCGCTAATGAGCGGGTTTTTTCATTATGACAGTTGAAGCCAAAAAAACATATTGCGTGTAAACCAAAGGCGGTGTAAAATATAACCATCTTTTGAGAAAGCGCTTGCGCAAAATGGCAGAGCGGATAGAACCGCTGTTTTTTTAGCTGTTAAGAGAAAACGCTTTCTCAAAGCGAGCCCGAAATGAGATAAAGGAGAGGATGGGACGTGGAACATCAAGTAAGATGTGCAGTATTGGGATTAGGAAGGCTCGGTTA (double strand) [iolX promoter 300 bp footprint probe, high affinity region] | – | binds
